Data set [1] concerns the target T1, FADD (Homo sapiens, UniProt Q13158).
T1 sequence (Q13158 1-208): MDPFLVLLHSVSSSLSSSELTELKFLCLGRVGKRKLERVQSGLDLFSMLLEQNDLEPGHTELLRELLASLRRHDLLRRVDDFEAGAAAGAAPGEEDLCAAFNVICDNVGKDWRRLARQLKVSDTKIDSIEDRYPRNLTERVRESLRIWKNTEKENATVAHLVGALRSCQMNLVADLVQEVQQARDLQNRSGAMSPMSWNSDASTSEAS
Description: In vitro binding assay (GST pull-down) of GST-MUC1-CD proteins with purified FADD. To be noted: immunoblot (FIG. 12A). Here is the method:
FIG. 12A: GST and the indicated GST-MUC1-CD proteins were incubated with purified FADD. The adsorbates and input FADD were immunoblotted with anti-FADD antibody. The GST and GSTMUC1-CD proteins were stained with Coomassie blue.
Purified GST, GST-MUC1-CD(1-72), GST-MUC1-CD deletion mutants, GST-caspase-8, GST-caspase-8 deletion mutants, GST-FADD, GST-N-FADD and GST-C-FADD protein (36) were purified from E. coli (BL21 DE3) and immobilized on glutathione-agarose beads (Pierce). His-MUC1-CD(1-72) and His-caspase-8 deletion mutant proteins were purified on Ni-NTA beads (Qiagen, Valencia, Calif.). GST and GST fusion proteins bound to glutathione beads were incubated with purified soluble proteins for 2 hours at 4° C., and washed. Adsorbates bound to the beads were analyzed by solubilizing the protein/bead mixture in Laemli buffer following by sodium dodecyl sulfate polyacrylamide gel electrophoresis (SDS-PAGE) and immunoblotting. For competition studies, GST-caspase-8 DED protein bound to FADD was incubated with increasing amounts of MUC1-CD protein. Precipitated proteins were subjected to SDS-PAGE and immunoblot analysis. In certain studies, binding was performed in the presence of a synthetic peptide ([…]) (SEQ ID NO:3) derived from amino acids 1-20 from MUC1-CD (Molecular Biology Core Facility, Dana-Farber Cancer Institute).

The next data set concerns BC-1 cells. Description: FasL-induced apoptosis of BC-1 cells (sub-G1 DNA content). It is filed as cell-based, human. To be noted: 50 ng/ml FasL, 24 hours (FIG. 1C, 1D). Here is the method:
FIG. 1C: The indicated BC-1 cell populations were treated with 50 ng/ml FasL for 24 hours and then analyzed by fluorescence assisted cell sorting (FACS) to determine the sub-G1 DNA content in the cells.
FIG. 1D: The results obtained with the indicated BC-1 cell populations left untreated (open bars) or treated with FasL (solid bars) are expressed as the percentage apoptosis (mean+SD for three experiments).
Cells were fixed in 70% ethanol and incubated in PBS containing 50 μg/ml RNase and 2.5 μg/ml propidium iodide. DNA content was analyzed by flow cytometry. The percentage of cells with sub-G1 DNA was determined by the MODFIT LT Program (Verity Software, Topsham, Me.). Cells were also suspended in Annexin-V-FLOUS containing propidium iodide (Roche) and analyzed by flow cytometry.

For the next data set, the system named is MUC1-C. The experiment in a line: Silencing of MUC1 expression in BC-1 cells, immunoblot. Format: cell-based, human. To be noted: lentivirus, compared to control siRNA (FIG. 1A). An excerpt:
FIG. 1A: BC-1 cells were infected with lentiviruses expressing the CsiRNA, MUC1siRNA#1 or MUC1siRNA#2. Lysates from the indicated cell populations were immunoblotted with anti-MUC1-C and anti-β-actin antibodies as indicated to the right of the photographs. The molecular weights of each of the proteins (in kilodaltons (kDa)) are indicated to the left of each of the photographs.
The BLOCK-iT Target Screening System (Invitrogen, Carlsbad, Calif.) was used to generate two MUC1-specific siRNA molecules (Sequence #1: […] (SEQ ID NO:31); or Sequence #2: […] (SEQ ID NO:32)) and a control siRNA sequence ([…]; SEQ ID NO:33). The RNAi cassettes (nucleic acids encoding the siRNA molecules) were inserted into pLenti4/BLOCK-iT-DEST by LR recombination for the generation of lentiviral vectors. BC-1 cells were infected with the lentiviruses at a multiplicity of infection of 5 in the presence of 8 μg/ml polybrene. Cell clones were selected in methylcellulose semi-solid medium containing 200 μg/ml Zeocin and assayed for downregulation of MUC1 by immunoblotting. […]
Cells were lysed by sonication in the presence of 10 mM Tris-HCl, pH 7.5, 150 mM NaCl, 5 mM EDTA, 0.5% NP-40, 100 μg/ml phenylmethylsulphonyl fluoride (PMSF), and standard protease inhibitors. […] Reactivity was detected with horseradish peroxidase-conjugated secondary antibodies and chemiluminescence (GE Healthcare Biosciences, Piscataway, N.J.).

The target of data set [2] is T1, FADD. Description: In vitro competition: GST-caspase-8(1-183) binding to FADD with increasing amounts of MUC1-CD. To be noted: increasing amounts of MUC1-CD protein (FIG. 12C). Here is the method: FIG. 12C: GST or GST-caspase-8(1-183) containing the DEDs was incubated with FADD in the absence or presence of increasing amounts of purified MUC1-CD. The adsorbates and input FADD were immunoblotted with anti-FADD antibody. Input of GST and GST-caspase-8(1-183) was determined by Coomassie blue staining. Input of MUC1-CD was determined by immunoblotting.
(§1) Purified GST, GST-MUC1-CD(1-72), GST-MUC1-CD deletion mutants, GST-caspase-8, GST-caspase-8 deletion mutants, GST-FADD, GST-N-FADD and GST-C-FADD protein (36) were purified from E. coli (BL21 DE3) and immobilized on glutathione-agarose beads (Pierce). His-MUC1-CD(1-72) and His-caspase-8 deletion mutant proteins were purified on Ni-NTA beads (Qiagen, Valencia, Calif.). GST and GST fusion proteins bound to glutathione beads were incubated with purified soluble proteins for 2 hours at 4° C., and washed. Adsorbates bound to the beads were analyzed by solubilizing the protein/bead mixture in Laemli buffer following by sodium dodecyl sulfate polyacrylamide gel electrophoresis (SDS-PAGE) and immunoblotting. For competition studies, GST-caspase-8 DED protein bound to FADD was incubated with increasing amounts of MUC1-CD protein. Precipitated proteins were subjected to SDS-PAGE and immunoblot analysis. […]

A further data set concerns caspase-8. The experiment in a line: In vitro binding assay (GST pull-down) of MUC1-CD proteins with caspase-8. To be noted: immunoblot (FIG. 9A, 9D). Set-up: species or system human. Here is the method: FIG. 9A depicts the amino acid sequence for human MUC1-CD (SEQ ID NO:2). Phosphorylation sites and regions for β-catenin, IKKβ and IKKγ binding are indicated by brackets of arrows (upper panel). GST (glutathione-S-transferase) or GST-caspase-8 protein were incubated with purified His-MUC1-CD. The adsorbates and the input protein were immunoblotted with anti-His and anti-GST antibodies as indicated to the right of the photographs. The molecular weights of each of the proteins (in kilodaltons (kDa)) are indicated to the left of each of the photographs.
Sequence of caspase-8 (Q14790 184-384 limits assumed): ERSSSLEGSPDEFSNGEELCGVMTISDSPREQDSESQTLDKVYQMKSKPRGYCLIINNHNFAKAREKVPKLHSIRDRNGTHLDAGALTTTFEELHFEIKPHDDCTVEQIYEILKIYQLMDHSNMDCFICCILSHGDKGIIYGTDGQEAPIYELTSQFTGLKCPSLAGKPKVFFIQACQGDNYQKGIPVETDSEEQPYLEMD
FIG. 9D: GST or the indicated GST-MUC1-CD proteins were incubated with His-caspase-8-p18 (upper panel). The adsorbates were immunoblotted with anti-His and anti-GST antibodies. GST or GST-MUC1-CD(1-20) was incubated with His-caspase-8-p18 in the presence of increasing amounts of MUC1-CD(1-20) peptide (lower panel). […] Input of the GST proteins was assessed by Coomassie blue staining.
Purified GST, GST-MUC1-CD(1-72), GST-MUC1-CD deletion mutants, GST-caspase-8, GST-caspase-8 deletion mutants, GST-FADD, GST-N-FADD and GST-C-FADD protein (36) were purified from E. coli (BL21 DE3) and immobilized on glutathione-agarose beads (Pierce). […] Adsorbates bound to the beads were analyzed by solubilizing the protein/bead mixture in Laemli buffer following by sodium dodecyl sulfate polyacrylamide gel electrophoresis (SDS-PAGE) and immunoblotting. […]

In another data set the target is T2, MUC1-CD (Homo sapiens, UniProt P15941).
T2 construct: Purified GST, GST-MUC1-CD(1-72), GST-MUC1-CD deletion mutants; made in house; host or cells: E. coli BL21 DE3
T2 sequence (P15941 1184-1255): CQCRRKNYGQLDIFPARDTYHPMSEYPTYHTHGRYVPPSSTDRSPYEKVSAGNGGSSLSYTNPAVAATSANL
The experiment in a line: In vitro binding assay of His-caspase-8-p18 fragments with GST-MUC1-CD. To be noted: GST-MUC1-CD on glutathione beads (FIG. 9C). Here is the method: FIG. 9C is a schematic of his-tagged caspasc-8 p18 fragment depicting the A, B, C and AB subfragments (upper panel). The shaded region denotes position of the His tag. GST or GST-MUC1-CD was incubated with the indicated His-caspase-8 proteins. The adsorbates and input proteins ( 1/10th that used in the reactions) were immunoblotted with anti-His and anti-GST antibodies as indicated to the right of the photographs.
as §1

For another data set, the target named is T3, caspase-8-p18 (Homo sapiens, UniProt Q14790).
T3 construct: His; made in house; host or cells: E. coli BL21 DE3 is stated for the GST proteins; no host is printed for the His proteins
T3 sequence (Q14790 184-384): as the sequence (Q14790 184-384 limits assumed) above
The experiment in a line: In vitro binding assay: GST-MUC1-CD(1-20) with His-caspase-8-p18 in the presence of MUC1-CD(1-20) peptide. To be noted: increasing amounts of peptide; GST pull-down, immunoblot (FIG. 9D, lower). Here is the method:
FIG. 9D: GST or the indicated GST-MUC1-CD proteins were incubated with His-caspase-8-p18 (upper panel). The adsorbates were immunoblotted with anti-His and anti-GST antibodies. GST or GST-MUC1-CD(1-20) was incubated with His-caspase-8-p18 in the presence of increasing amounts of MUC1-CD(1-20) peptide (lower panel). The adsorbates were immunoblotted with anti-caspase-8 antibody as indicated to the right of the photographs. Input of the GST proteins was assessed by Coomassie blue staining.
as §1

Ends that are not written are not given here.

Regarding “MUC1-CD(1-45): GST-MUC1-CD deletion mutant, amino acids 1-45 of MUC1-CD (CQCRRKNYGQLDIFPARDTYHPMSEYPTYHTHGRYVPPSSTDRSP; cysteine pairing not given here; also: GST fusion)”, in the data set with FADD [1], the “binding to FADD” value is listed as “not”.

On to “YEKVSAGNGGSSLSYTNPAVAATSANL (also: GST fusion; listed as Homo sapiens) [MUC1-CD(46-72), GST-MUC1-CD deletion mutant, amino acids 46-72 of MUC1-CD]”, for which the “binding to FADD” value with FADD [1] is reported as “found to bind to FADD”.

“AAGGTACCATCAATGTCCACG (expressed or natural sequence) [MUC1siRNA#1]”: the FasL-induced apoptosis result in the data set with BC-1 cells is “sensitized”. In addition, the MUC1-C expression result with MUC1-C is given as “stably downregulated”.

On to “AAGTTCAGTGCCCAGCTCTAC (expressed or natural sequence) [MUC1siRNA#2]”, for which the FasL-induced apoptosis entry in the data set on BC-1 cells was “confirmed”. For the same substance, in the data set with MUC1-C, the MUC1-C expression result is “similar”.

Turning to “MUC1-CD: 72 amino acid cytoplasmic domain of full-length human MUC1, purified as His- or GST-tagged protein”, the “binding to FADD” value with FADD [1] is on record as “interact directly”. The “interaction between FADD and caspase-8 (1-183)” value with FADD [2] was “progressive decrease”. In addition, in the data set with caspase-8, the “binding to caspase-8” value is listed as “binds to caspase-8”.

In the case of “MUC1-CD(1-20): GST-MUC1-CD fragment containing just amino acids 1-20 of MUC1-CD (CQCRRKNYGQLDIFPARDTY; cysteine pairing not given here; also: GST fusion)”, in the data set with caspase-8, the “binding to caspase-8” value is on record as “able to interact with caspase-8”.

As to “caspase-8-p18-B: His-tagged fragment B of caspase-8-p18, amino acids 270-322 of human caspase-8 (KLHSIRDRNGTHLDAGALTTTFEELHFEIKPHHDCTVEQIYEILKIYQLMDHS; also: His tag; listed as Homo sapiens)”, in the data set with MUC1-CD, the “binding to MUC1-CD” value is on record as “binds”.

Take “CQCRRKNYGQLDIFPARDTY (listed as Homo sapiens) [MUC1-CD(1-20) peptide, synthetic peptide derived from amino acids 1-20 from MUC1-CD]”: the “binding of MUC1-CD(1-20) to caspase-8-p18 in the presence of the peptide” value in the data set with caspase-8-p18 is listed as “inhibited”.

For the origin of these results see US8809002B2, “MUC1, caspase-8, and DED-containing proteins” (Dana-Farber Cancer Institute, Inc., priority 2008, dated 2014).
